Measured values reported in publication PMC2787765.

Target: αB-crystallin triply substituted analog (serine residues 19, 45 and 59 mutated to aspartic acids) (UniProt P02511)
Assay: back-scattering interferometry

Substance | KD1 (high affinity mode) | KD2 (low affinity mode) | kf1 (forward rate, high affinity mode) | kf2 (forward rate, low affinity mode) | kr1 (reverse rate, high affinity mode) | reduction in magnitude of the steady-state BSI signal relative to T4L-L99A-A130S | reverse rate, low affinity mode (row printed as kr1)
T4 lysozyme D70N (from UniProt P00720 1-164) (enzyme) | 0.595 µM | 29.1 µM | 25500 M⁻¹ s⁻¹ | 2340 M⁻¹ s⁻¹ | 0.0152 s⁻¹ | 40% | 
T4 lysozyme L99A-A130S double mutant (from UniProt P00720 1-164) (enzyme) | 0.132 µM | 33 µM | 58500 M⁻¹ s⁻¹ | 2970 M⁻¹ s⁻¹ | 5.03e-06 s⁻¹ |  | 0.115 s⁻¹
